According to article PMC12469269 (2025):

Experiments:
Assay in all cases: SPR
[1] = target: T1, Recombinant Human GRP75/HSPA9B/Mortalin His Protein (human, UniProt P38646 47-679)
[2] = target: T2, Recombinant Human Vimentin Protein, CF (human, UniProt P08670 1-466)
Mortalin peptide #62 = Mortalin peptide #62 (UniProt P38646)
Mortalin peptide #56 = Mortalin peptide #56 (UniProt P38646)
[3] = target: T1, Recombinant Human GRP75/HSPA9B/Mortalin …; remark: listed apart in the source
[4] = target: T2, Recombinant Human Vimentin Protein, CF; remark: listed apart in the source

T2 sequence (P08670 whole entry): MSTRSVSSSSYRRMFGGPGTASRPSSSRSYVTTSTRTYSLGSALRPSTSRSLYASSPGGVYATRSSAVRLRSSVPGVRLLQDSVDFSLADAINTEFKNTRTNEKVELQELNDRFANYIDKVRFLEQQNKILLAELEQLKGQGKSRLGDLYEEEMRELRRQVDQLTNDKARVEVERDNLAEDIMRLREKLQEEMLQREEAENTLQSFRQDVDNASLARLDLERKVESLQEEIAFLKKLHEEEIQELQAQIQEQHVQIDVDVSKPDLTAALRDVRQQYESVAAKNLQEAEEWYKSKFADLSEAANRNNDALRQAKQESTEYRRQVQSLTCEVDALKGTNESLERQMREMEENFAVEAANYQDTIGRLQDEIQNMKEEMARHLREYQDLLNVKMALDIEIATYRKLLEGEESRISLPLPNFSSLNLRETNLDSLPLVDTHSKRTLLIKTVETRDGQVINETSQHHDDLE
T1 sequence (P38646 47-679): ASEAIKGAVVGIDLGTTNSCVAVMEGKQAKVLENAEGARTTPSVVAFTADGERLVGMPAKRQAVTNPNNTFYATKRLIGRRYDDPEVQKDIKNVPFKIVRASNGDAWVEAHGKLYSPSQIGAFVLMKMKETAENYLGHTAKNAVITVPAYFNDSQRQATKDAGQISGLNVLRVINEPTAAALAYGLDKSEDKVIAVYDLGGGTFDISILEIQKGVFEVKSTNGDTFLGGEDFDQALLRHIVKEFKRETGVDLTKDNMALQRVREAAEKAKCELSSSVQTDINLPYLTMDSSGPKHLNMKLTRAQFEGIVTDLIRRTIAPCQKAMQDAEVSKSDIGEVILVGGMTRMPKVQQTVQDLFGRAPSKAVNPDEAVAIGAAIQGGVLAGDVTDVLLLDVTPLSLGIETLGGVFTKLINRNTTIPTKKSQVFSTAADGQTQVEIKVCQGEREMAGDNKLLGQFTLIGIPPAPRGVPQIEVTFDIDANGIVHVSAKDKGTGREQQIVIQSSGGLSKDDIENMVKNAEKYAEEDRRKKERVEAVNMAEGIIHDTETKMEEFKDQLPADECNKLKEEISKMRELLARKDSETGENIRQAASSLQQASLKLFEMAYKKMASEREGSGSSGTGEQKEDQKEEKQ

Row | Binder | koff [1] [s⁻¹] | koff [2] [s⁻¹] | Kd (Mortalin peptide #62) [nM] | koff (Mortalin peptide #62) [s⁻¹] | Kd (Mortalin peptide #56) [µM] | koff (Mortalin peptide #56) [s⁻¹] | Kd [3] [µM] | Kd [4] [µM]
1 | HIV-1 Nef protein (natural protein) MGGKWSKSSVVGWPTVRERMRRAEPAADGVGAASRDLEKHGAITSSNTAATNAACAWLEAQEEEEVGFPVTPQVPLRPMTYKAAVDLSHFLKEKGGLEGLIHSQRRQDILDLWIYHTQGYFPDWQNYTPGPGVRYPLTFGWCYKLVPVEPDKVEEANKGENTSLLHPVSLHGMDDPEREVLEWRFDSRLAFHHVARELHPEYFKNC | 0.0226 | 0.000901 | 1900 | 0.0037 | 76.9 | 0.0285 |  | 
2 | VGFPV [SMRwt peptide] | 0.0152 | 0.0566 |  |  |  |  | 22.6 | 8.8
